Here are results for 17 molecules from patent US20180037651A1 (Janssen / Centocor, published 2018).

Some results are limits rather than exact numbers.

In assay [1] the target is T1, cyno GPRC5D (cyno, UniProt Q9NZD1 1-343 (human entry)).
T1 construct: on transfected HEK293F or Daudi cells; also called cynomolgus monkey GPRC5D
T1 chain: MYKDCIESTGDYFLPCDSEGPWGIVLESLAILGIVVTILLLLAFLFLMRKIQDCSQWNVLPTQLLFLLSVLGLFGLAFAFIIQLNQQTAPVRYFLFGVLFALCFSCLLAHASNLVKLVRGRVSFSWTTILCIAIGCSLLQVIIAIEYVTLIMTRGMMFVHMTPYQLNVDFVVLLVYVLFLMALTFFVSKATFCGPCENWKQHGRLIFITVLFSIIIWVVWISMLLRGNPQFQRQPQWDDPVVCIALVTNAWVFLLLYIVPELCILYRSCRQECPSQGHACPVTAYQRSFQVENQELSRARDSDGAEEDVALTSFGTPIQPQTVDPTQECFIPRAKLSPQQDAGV
In words: FACS, cyno GPRC5D HEK293F cells. Background: Flow cytometry measures light scatter and fluorescence of single cells or particles in a stream.

The target in assay [2] is T2, human GPRC5D (human, UniProt Q9NZD1 1-345).
T2 construct: on transfected HEK293/RBL cells or endogenous on myeloma cells (H929, MM1R, OPM2, LP1, JIM3, patient plasma cells); also called G protein-coupled receptor class C group 5 member D; hGPRC5D
T2 sequence (Q9NZD1 whole entry): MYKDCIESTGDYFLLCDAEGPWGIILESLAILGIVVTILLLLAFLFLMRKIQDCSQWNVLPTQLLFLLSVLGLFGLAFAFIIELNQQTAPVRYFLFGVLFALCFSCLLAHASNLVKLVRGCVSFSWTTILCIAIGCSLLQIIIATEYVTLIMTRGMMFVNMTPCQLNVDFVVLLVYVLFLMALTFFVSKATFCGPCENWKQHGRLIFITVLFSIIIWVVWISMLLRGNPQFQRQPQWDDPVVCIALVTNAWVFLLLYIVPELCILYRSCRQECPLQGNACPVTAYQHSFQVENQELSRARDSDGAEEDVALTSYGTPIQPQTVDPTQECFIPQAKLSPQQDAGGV
Kind of assay: FACS, human GPRC5D HEK293F cells.

Assay [3] deals with T1, cyno GPRC5D. Kind of assay: FACS, cyno GPRC5D cells, 1 ug/ml. As to the method:
Whole cell phage panning was completed using the human GPRC5D cells as antigen, as described above. […] These mAbs were initially evaluated for binding to cyno GPRC5D using FACS. […] Briefly, FACS screening was performed by normalizing protein concentration to 1 ug/ml and 100 ul of protein was mixed with 200,000 cells per well. The mAb was allowed to incubate with cells for 1 hour at 4° C. The cells were then washed three times with PBS and 0.2% FBS. […] The cells and secondary antibody were incubated for 1 hour at 4° C. The cells were then washed three times with PBS and 0.2% FBS. The cells were washed again using PBS and 0.2% FBS and then analyzed on FACSarry.

Assay [4] deals with T2, human GPRC5D. Kind of assay: FACS, human GPRC5D cells.
Assay [5] has as its target T1, cyno GPRC5D. Kind of assay: cell-based or functional assay.
The target of the next assay is T3, murine GPRC5D (murine, UniProt Q9JIL6 1-344).
T3 construct: also called mouse GPRC5D
T3 sequence: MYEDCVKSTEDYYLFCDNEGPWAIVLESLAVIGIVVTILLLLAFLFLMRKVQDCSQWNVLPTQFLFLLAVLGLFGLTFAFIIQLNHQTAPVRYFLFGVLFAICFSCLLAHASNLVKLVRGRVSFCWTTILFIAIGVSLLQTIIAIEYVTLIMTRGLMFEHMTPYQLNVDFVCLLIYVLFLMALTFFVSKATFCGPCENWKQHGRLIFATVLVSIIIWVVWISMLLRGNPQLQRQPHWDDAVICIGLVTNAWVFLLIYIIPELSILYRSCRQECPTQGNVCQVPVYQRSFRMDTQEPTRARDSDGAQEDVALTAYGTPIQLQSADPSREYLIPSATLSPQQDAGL
In words: FACS, murine GPRC5D.

B1: GC5B251 (antibody, IgG1, V domains shown)
VH: QVQLVQSGAEVKKPGSSVKVSCKASGGTFSSYGISWVRQAPGQGLEWMGGIIPIFGNINYAQKFQGRVTITADESTSTAYMELSSLRSEDTAVYYCARVSRRFKRFAYYFDYWGQGTLVTVSS
VL: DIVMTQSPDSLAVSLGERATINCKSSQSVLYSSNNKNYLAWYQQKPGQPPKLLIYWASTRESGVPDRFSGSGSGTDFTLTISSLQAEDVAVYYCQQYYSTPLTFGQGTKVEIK
notes: human IgG4PAA
With B1, the MFI with cyno GPRC5D [1] worked out at 74500 MFI; in the assay with human GPRC5D [2] it was 11400 MFI; with cyno GPRC5D [3], 213000 MFI.

B2: GC5B253 (antibody, V domains shown)
VH: QVQLVQSGAEVKKPGSSVKVSCKASGGTFSSYGISWVRQAPGQGLEWMGGIIPIFGNINYAQKFQGRVTITADESTSTAYMELSSLRSEDTAVYYCARVSRRFKRFAYYFDYWGQGTLVTVSS
VL: not shown
notes: GC5H42+PH9L4
For B2, the MFI with cyno GPRC5D [3] is 574 MFI.

B3: GC5B80 (antibody, V domains shown)
VH: not shown
VL: EIVLTQSPATLSLSPGERATLSCRASQSVSSYLAWYQQKPGQAPRLLIYDASNRATGIPARFSGSGSGTDFTLTISSLEPEDFAVYYCQQRSNWPLTFGQGTKVEIK
notes: GC5H40+PH9L3
In the case of B3, the MFI with cyno GPRC5D [3] was found to be 428 MFI.

B4: GC5B320 (printed with GC5H92) (antibody, V domains shown)
VH: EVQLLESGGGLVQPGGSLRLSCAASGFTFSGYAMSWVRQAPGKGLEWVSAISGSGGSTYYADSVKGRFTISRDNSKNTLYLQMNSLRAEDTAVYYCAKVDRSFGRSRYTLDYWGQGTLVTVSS
VL: EIVLTQSPATLSLSPGERATLSCRASQSVSSYLAWYQQKPGQAPRLLIYDASNRATGIPARFSGSGSGTDFTLTISSLEPEDFAVYYCQQRSNWPLTFGQGTKVEIK
With B4, in the assay with cyno GPRC5D [3], the MFI was 297 MFI.

B5: GC5B320 (antibody, IgG1, V domains shown)
VH: not shown
VL: EIVLTQSPATLSLSPGERATLSCRASQSVSSYLAWYQQKPGQAPRLLIYDASNRATGIPARFSGSGSGTDFTLTISSLEPEDFAVYYCQQRSNWPLTFGQGTKVEIK
notes: GC5H58+PH9L3 (L6); human IgG4PAA
In the case of B5, the MFI was 63300 MFI with cyno GPRC5D [1], 22900 MFI with human GPRC5D [2] and 49600 MFI with cyno GPRC5D [3].

B6: GC5B164 (antibody, IgG1, V domains shown)
VH: EVQLVQSGAEVKKPGESLKISCKGSGYSFTSYWIGWVRQMPGKGLEWMGIIYPGDSDTRYSPSFQGQVTISADKSISTAYLQWSSLKASDTAMYYCARVYSFGGRHKALFDYWGQGTLVTVSS
VL: EIVLTQSPATLSLSPGERATLSCRASQSVSSYLAWYQQKPGQAPRLLIYDASNRATGIPARFSGSGSGTDFTLTISSLEPEDFAVYYCQQRSNWPLTFGQGTKVEIK
notes: GC5H36+PH9L3 (L6); human IgG4PAA
In the case of B6, the MFI in the assay with cyno GPRC5D [1] came to 78700 MFI; in the assay with human GPRC5D [2], 12700 MFI; with cyno GPRC5D [3], 122000 MFI.

B7: GC5B252 (antibody, V domains shown)
VH: QVQLVQSGAEVKKPGSSVKVSCKASGGTFSSYGISWVRQAPGQGLEWMGGIIPIFGNINYAQKFQGRVTITADESTSTAYMELSSLRSEDTAVYYCARVSRRFKRFAYYFDYWGQGTLVTVSS
VL: EIVLTQSPATLSLSPGERATLSCRASQSVSSYLAWYQQKPGQAPRLLIYDASNRATGIPARFSGSGSGTDFTLTISSLEPEDFAVYYCQQRSNWPLTFGQGTKVEIK
notes: GC5H42+PH9L3
As to B7, the MFI was found to be 22000 MFI with cyno GPRC5D [1], 1500 MFI with human GPRC5D [2] and 63300 MFI in the assay with cyno GPRC5D [3].

B8: GC5B284 (antibody, V domains shown)
VH: not shown
VL: EIVLTQSPATLSLSPGERATLSCRASQSVSSYLAWYQQKPGQAPRLLIYDASNRATGIPARFSGSGSGTDFTLTISSLEPEDFAVYYCQQRSNWPLTFGQGTKVEIK
notes: GC5H14+PH9L3
Take B8: the MFI with cyno GPRC5D [3] is 249 MFI.

B9: GC5B332 (antibody, IgG1, V domains shown)
VH: EVQLVQSGAEVKKPGESLKISCKGSGYSFTSYWIGWVRQMPGKGLEWMGIIYPGDSDTRYSPSFQGQVTISADKSISTAYLQWSSLKASDTAMYYCARIGFYGRSFRIFDYWGQGTLVTVSS
VL: EIVLTQSPATLSLSPGERATLSCRASQSVSSYLAWYQQKPGQAPRLLIYDASNRATGIPARFSGSGSGTDFTLTISSLEPEDFAVYYCQQRSNWPLTFGQGTKVEIK
notes: GC5H35+PH9L3 (L6); human IgG4PAA
With B9, the results for the MFI in the assay with cyno GPRC5D [1], with human GPRC5D [2] and with cyno GPRC5D [3] were 107000 MFI, 13300 MFI and 192000 MFI, respectively.

B10: GC5B332 (printed with GC5H89) (antibody, V domains shown)
VH: EVQLVQSGAEVKKPGESLKISCKGSGYSFTSYWIGWVRQMPGKGLEWMGIIYPGDSDTRYSPSFQGQVTISADKSISTAYLQWSSLKASDTAMYYCARIGFYGRSFRIFDYWGQGTLVTVSS
VL: EIVLTQSPATLSLSPGERATLSCRASQSVSSYLAWYQQKPGQAPRLLIYDASNRATGIPARFSGSGSGTDFTLTISSLEPEDFAVYYCQQRSNWPLTFGQGTKVEIK
Take B10: in the assay with cyno GPRC5D [3], the MFI turned out to be 299 MFI.

B11: GC5B505 (antibody, V domains shown)
VH: EVQLVQSGAEVKKPGESLKISCKGSGYSFTSYWIGWVRQMPGKGLEWMGIIYPGYSDTRYSPSFQGQVTISADKSISTAYLQWSSLKASDTAMYYCARVYSFGGRHKALFDYWGQGTLVTVSS
VL: EIVLTQSPATLSLSPGERATLSCRASQSVSSYLAWYQQKPGQAPRLLIYDASNRATGIPARFSGSGSGTDFTLTISSLEPEDFAVYYCQQRSNWPLTFGQGTKVEIK
notes: GC5B164 PTM variant; also called GC5H244
The molecule B11 displayed an MFI with human GPRC5D [4] of over 10000 mfi.

B12: GC5B504 (antibody, V domains shown)
VH: EVQLVQSGAEVKKPGESLKISCKGSGYSFTSYWIGWVRQMPGKGLEWMGIIYPGESDTRYSPSFQGQVTISADKSISTAYLQWSSLKASDTAMYYCARVYSFGGRHKALFDYWGQGTLVTVSS
VL: EIVLTQSPATLSLSPGERATLSCRASQSVSSYLAWYQQKPGQAPRLLIYDASNRATGIPARFSGSGSGTDFTLTISSLEPEDFAVYYCQQRSNWPLTFGQGTKVEIK
notes: GC5B164 PTM variant; also called GC5H245
Turning to B12, the MFI with human GPRC5D [4] is over 10000 mfi.

B13: GCDB72 (bispecific antibody, IgG4, V domains shown)
VH 1: QVQLVQSGAEVKKPGASVKVSCKASGYSFTGYTMNWVRQAPGQGLEWMGLINPYNSDTNYAQKLQGRVTMTTDTSTSTAYMELRSLRSDDTAVYYCARVALRVALDYWGQGTLVTVSS
VL 1: DIQMTQSPSSLSASVGDRVTITCKASQNVATHVGWYQQKPGKAPKRLIYSASYRYSGVPSRFSGSGSGTEFTLTISNLQPEDFATYYCQQYNRYPYTFGQGTKLEIK
VH 2: EVQLVESGGGLVQPGGSLRLSCAASGFTFNTYAMNWVRQAPGKGLEWVARIRSKYNNYATYYAASVKGRFTISRDDSKNSLYLQMNSLKTEDTAVYYCARHGNFGNSYVSWFAYWGQGTLVTVSS
VL 2: QTVVTQEPSLTVSPGGTVTLTCRSSTGAVTTSNYANWVQQKPGQAPRGLIGGTNKRAPGTPARFSGSLLGGKAALTLSGVQPEDEAEYYCALWYSNLWVFGGGTKLTVL
notes: IgG4-PAA by Fab arm exchange; CD3 arm also F405L, R409K; also called GC5B596 x CD3B219
As to B13, the “T-cell redirection cytotoxicity EC50, cyno GPRC5D HEK cells” value in the assay with cyno GPRC5D [5] amounted to 3.41 nM. The same molecule yielded an MFI in the assay with murine GPRC5D of 481 MFI.

B14: GC5B243 (antibody, IgG1, V domains shown)
VH: EVQLLESGGGLVQPGGSLRLSCAASGFTFSDYGMHWVRQAPGKGLEWVSAIKYSGGSTYYADSVKGRFTISRDNSKNTLYLQMNSLRAEDTAVYYCAKRAESGPGLDYWGQGTLVTVSS
VL: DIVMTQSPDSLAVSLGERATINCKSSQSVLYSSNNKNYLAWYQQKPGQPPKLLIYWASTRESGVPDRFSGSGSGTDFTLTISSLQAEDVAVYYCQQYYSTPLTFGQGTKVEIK
notes: human IgG4PAA
B14: the MFI came to 67800 MFI with cyno GPRC5D [1], 20500 MFI with human GPRC5D [2] and 117000 MFI with cyno GPRC5D [3].

B15: GC5B163 (antibody, V domains shown)
VH: EVQLVQSGAEVKKPGESLKISCKGSGYSFTSYWIGWVRQMPGKGLEWMGIIYPGDSDTRYSPSFQGQVTISADKSISTAYLQWSSLKASDTAMYYCARVYSFGGRHKALFDYWGQGTLVTVSS
VL: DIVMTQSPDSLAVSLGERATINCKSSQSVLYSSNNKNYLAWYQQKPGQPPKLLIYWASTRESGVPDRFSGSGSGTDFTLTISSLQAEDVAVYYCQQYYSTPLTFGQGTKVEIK
notes: GC5H36+PH9L2
Regarding B15, the MFI with cyno GPRC5D [1] was 7600 MFI; in the assay with human GPRC5D [2] it was 840 MFI; with cyno GPRC5D [3], 22000 MFI.

B16: GC5B331 (antibody, V domains shown)
VH: EVQLVQSGAEVKKPGESLKISCKGSGYSFTSYWIGWVRQMPGKGLEWMGIIYPGDSDTRYSPSFQGQVTISADKSISTAYLQWSSLKASDTAMYYCARIGFYGRSFRIFDYWGQGTLVTVSS
VL: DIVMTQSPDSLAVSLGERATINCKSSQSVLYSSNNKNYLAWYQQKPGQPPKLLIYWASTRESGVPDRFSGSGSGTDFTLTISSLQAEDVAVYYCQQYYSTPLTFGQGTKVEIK
notes: GC5H35+PH9L2
B16: in the assay with cyno GPRC5D [3], the MFI is 552 MFI.

B17: GC5B333 (printed with GC5H35) (antibody, V domains shown)
VH: EVQLVQSGAEVKKPGESLKISCKGSGYSFTSYWIGWVRQMPGKGLEWMGIIYPGDSDTRYSPSFQGQVTISADKSISTAYLQWSSLKASDTAMYYCARIGFYGRSFRIFDYWGQGTLVTVSS
VL: not shown
notes: GC5H35+PH9L4
In the assay with cyno GPRC5D [3], B17 displayed an MFI of 1590 MFI.
